Results published in patent US9624482B2, “Thermophilic cellobiohydrolase” (Sandia Corporation, priority 2009, dated 2017).
“Also recorded” adds a separate entry of the source.

Key:
GH5 = GH5 (Caldicellulosiruptor saccharolyticus, UniProt A4XIF7); experiment: Product inhibition by cellobiose of pNPC hydrolysis; assay type: biochemical; conditions: 5 mM pNPC, optimal condition; read-out: IC50 of cellobiose on CBH activity
Experimental: (§1) To examine the catalytic activity of GH5 in detail, the hydrolysis of nitrophenol from 4-nitrophenyl-β-D-cellobioside (pNPC) and 4-nitrophenyl-β-D-glucopyranoside (pNPG) are measured. Under the optimum reaction condition that is previously found (80° C. and pH 5.5), pNPC was hydrolyzed by both CBM3-GH5 and GH5. […] The product inhibition by cellobiose is examined by adding unlabeled cellobiose into reaction mixtures containing 5 mM of pNPC. The IC50 inhibition constant for cellobiose on the catalytic activity of GH5 is found at c.a. 30 mM. The kinetics of pNPC hydrolysis by CBM3-GH5 and GH5 are compared to see whether the CBM3 domain can influence the catalytic activity of the GH5 domain on a soluble substrate.
(§2) GH5 and CBM3-GH5 (constructs C and E, respectively) are tested to determine the influence of product and ionic strength on CBH activity.

[1] = Influence of ionic strength (NaCl) on CBH activity; assay type: biochemical; conditions: 2.3 M NaCl
Experimental: as §2

[2] = Hydrolysis of pNPG (β-glucosidase activity); assay type: biochemical; conditions: 80° C. and pH 5.5, up to one hour
Experimental: as §1

[3] = CMCase activity of constructs; assay type: biochemical
Excerpt: (§3) CBH is a modular cellulolytic gene from a hyperthermophilic and anaerobic bacterium Caldicellulosiruptor saccharolyticus (C. Sac), which contains the glycoside hydrolase family 10 (GH10), carbohydrate binding module family 3 (CBM3), and glycoside hydrolase family 5 (GH5) domains in a single open reading frame (ORF). We have expressed, purified, and characterized the function of the recombinant GH5 with and without CBM3 domain. The nucleotide sequence of the ORF is codon-optimized and then synthesized for protein expression in E. coli. The translated products contain c-terminal V5 epitope and His (×6) tags from the pDEST42 vector sequence. The recombinant proteins CBM3-GH5 and GH5 are expressed in BL21(DE3)Star E. coli and purified by affinity (HisTrap FF) and ion-exchange (HiTrap Q) chromatography methods. The average yields are 4 mg and 3 mg per liter, respectively.

[4] = Enzyme digestion of solid substrates, products by HPAEC; assay type: biochemical; conditions: 30 mg substrate, 10 μg protein, 80° C., pH 5.5, 17 hours
Experimental: The effect of CBM3 on the cellobiohydrolase activity on solid substrates by GH5 is tested on Avicel and corn stover. These solid substrates are pretreated with the ionic liquid 1-ethyl-3-methylmidazolium acetate ([C2mim][OAc]). […] Enzyme digestion is performed by mixing 30 mg of substrate and 10 μg of protein in 0.5 mL volume and incubating at 80° C. and pH 5.5 for 17 hours. GH5 and CBM3-GH5 are able to produce more cellobiose and glucose from pre-treated Avicel than untreated Avicel.

[5] = Effect of IL concentration on CBH activity, CMC substrate, DNS; assay type: biochemical; conditions: EMIM acetate
Experimental: GH5 and CBM3-GH5 (constructs C and E, respectively) are tested to determine the effect of IL concentration on the CBH activity of GH5. Carboxymethyl cellulose (CMC) is used as the substrate for the enzymatic reaction, and the amount of released products containing reducing ends is measured by DNS. The CBH activity remains fairly highly from 0% to more than 20% EMIM acetate. From 25% EMIM acetate the CBH activity starts to decrease and the CBH activity diminished at about 60% EMIM acetate.

[6] = Hydrolysis of pNPC, kinetics by Eadie-Hofstee plots; assay type: biochemical; conditions: 80° C. and pH 5.5
Experimental: as §1

[7] = substrate: O=[N+]([O-])c1ccc(O[C@@H]2O[C@H](CO)[C@@H](O[C@@H]3O[C@H](CO)[C@@H](O)[C@H](O)[C@H]3O)[C@H](O)[C@H]2O)cc1; experiment: hydrolysis kinetics of 4-nitrophenyl-β-D-cellobioside (pNPC) by CBM3-GH5 (Eadie-Hofstee plots); assay type: biochemical, Caldicellulosiruptor saccharolyticus; conditions: other: pNPC, 80° C., pH 5.5, Eadie-Hofstee plot
Excerpt: as §3, §1

[8] = CBH (cellobiohydrolase or exoglucanase) activity of constructs; assay type: biochemical
Excerpt: as §3

[9] = substrate: O=[N+]([O-])c1ccc(O[C@@H]2O[C@H](CO)[C@@H](O[C@@H]3O[C@H](CO)[C@@H](O)[C@H](O)[C@H]3O)[C@H](O)[C@H]2O)cc1; experiment: hydrolysis kinetics of 4-nitrophenyl-β-D-cellobioside (pNPC) by GH5 (Eadie-Hofstee plots); assay type: biochemical, Caldicellulosiruptor saccharolyticus
Excerpt: as §3, §1

[10] = Enzymatic activity on CMC under different pH and temperature, DNS assay; assay type: biochemical
Experimental: To determine the optimum conditions for the enzymatic activity of GH5 on CMC under different pH and temperature ranges was measured by DNS assay. The maximum activity is observed at 80° C. and at pH between 4.7 and 5.5; the optimum conditions of the GH5 activity on CMC is at a higher temperature and at a lower pH than the optimum growth conditions of C. sac (70° C., at neutral pH). In addition, Csac GH5 is also active on 4-nitrophenyl β-D-cellobioside, but not active on 4-nitrophenyl β-D-glucopyranoside (up to 1 hr incubation). Therefore, GH5 is a cellobiohydrolase/exoglucanase that produces cellobiose.

[11] = other: 80° C., 50 mM MES, pH 5.5 (general description of the enzyme)
[12] = other: pNPC, 80° C., pH 5.5, Eadie-Hofstee plot

Sequence of GH5 (A4XIF7 entry or part of it): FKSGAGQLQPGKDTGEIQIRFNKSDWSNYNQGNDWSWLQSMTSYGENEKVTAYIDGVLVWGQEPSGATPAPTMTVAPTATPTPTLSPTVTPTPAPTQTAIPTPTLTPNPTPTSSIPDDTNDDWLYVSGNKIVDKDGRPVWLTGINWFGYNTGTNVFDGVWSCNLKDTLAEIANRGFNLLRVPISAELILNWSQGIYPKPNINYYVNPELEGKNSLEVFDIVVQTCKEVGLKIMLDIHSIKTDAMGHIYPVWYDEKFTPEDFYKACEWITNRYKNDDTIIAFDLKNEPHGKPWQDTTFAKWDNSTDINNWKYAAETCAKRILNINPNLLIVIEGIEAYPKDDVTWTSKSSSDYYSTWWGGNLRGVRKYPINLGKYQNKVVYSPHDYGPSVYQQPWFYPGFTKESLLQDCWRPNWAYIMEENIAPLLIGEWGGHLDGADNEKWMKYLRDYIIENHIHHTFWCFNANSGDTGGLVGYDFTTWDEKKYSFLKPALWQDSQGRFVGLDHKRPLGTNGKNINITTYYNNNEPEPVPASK

Molecule	IC50 (GH5)	Residual CBH activity [1]	Activity on pNPG [2]	CMCase activity [3]	Sugar released from solid substrates [4]	IL concentration at which CBH activity diminished [5]	IL concentration from which CBH activity starts to decrease [5]	Activity on pNPC [6]	Km [7]	Vmax [7]	kcat [7]	CBH activity (cellobiohydrolase or exoglucanase) [8]	Km [9, 11]	Vmax [9, 11]	Km [9, 12]	Vmax [9, 12]	kcat [9, 12]	IL concentration up to which the enzyme is active/tolerant [5]	Temperature of maximum (optimal) activity [10]	pH of maximum (optimal) activity [10]
O=C[C@H](O)[C@@H](O)[C@H](O[C@@H]1O[C@H](CO)[C@@H](O)[C@H](O)[C@H]1O)[C@H](O)CO [cellobiose]	~30 mM																			
Caldicellulosiruptor saccharolyticus (Csac) CBM3-GH5 cellobiohydrolase, construct E (CsacF7-6), amino acids 374-1039 of Csac CBH, SEQ ID NO:4 … (protein, C-terminal V5 and His6 tags (pDEST42); E. coli BL21(DE3) Star; purified) MGVTTSSPTPTPTPTVTVTPTPTPTPTPTVTATPTPTPTPVSTPATGGQIKVLYANKETNSTTNTIRPWLKVVNSGSSSIDLSRVTIRYWYTVDGERAQSAVSDWAQIGASNVTFKFVKLSSSVSGADYYLEIGFKSGAGQLQPGKDTGEIQIRFNKSDWSNYNQGNDWSWLQSMTSYGENEKVTAYIDGVLVWGQEPSGATPAPTMTVAPTATPTPTLSPTVTPTPAPTQTAIPTPTLTPNPTPTSSIPDDTNDDWLYVSGNKIVDKDGRPVWLTGINWFGYNTGTNVFDGVWSCNLKDTLAEIANRGFNLLRVPISAELILNWSQGIYPKPNINYYVNPELEGKNSLEVFDIVVQTCKEVGLKIMLDIHSIKTDAMGHIYPVWYDEKFTPEDFYKACEWITNRYKNDDTIIAFDLKNEPHGKPWQDTTFAKWDNSTDINNWKYAAETCAKRILNINPNLLIVIEGLEAYPKDDVTWTSKSSSDYVSTWWGGNLRGVRKYPINLGKYQNKVVYSPHDYGPSVYQQPWFYPGFTKELLQDCWRPNWAYLMEENIAPLLIGEWGGHLDGADNEKWMKYLRDYIIENHIHHTFWCFNANSGDTGGLVGYDFTTWDEKKYSFLKPALWQDSQGRFVGLDHKRPLGTNGKNINITTYYNNNEPEPVPASK		at least 80%	not hydrolyzed	Yes	cellobiose is the predominant sugar released; also recorded: produced more cellobiose than GH5	about 60%	25%	hydrolyzed	2200 µM	0.71 µmol/min/mg	0.767 s⁻¹	Yes								
Caldicellulosiruptor saccharolyticus (Csac) GH5 cellobiohydrolase domain, construct C (CsacF7-4), amino acids 507-1039 of Csac CBH, SEQ ID NO:3 … (protein, C-terminal V5 and His6 tags (pDEST42); E. coli BL21(DE3) Star; purified) MFKSGAGQLQPGKDTGEIQIRFNKSDWSNYNQGNDWSWLQSMTSYGENEKVTAYIDGVLVWGQEPSGATPAPTMTVAPTATPTPTLSPTVTPTPAPTQTAIPTPTLTPNPTPTSSIPDDTNDDWLYVSGNKIVDKDGRPVWLTGINWFGYNTGTNVFDGVWSCNLKDTLAEIANRGFNLLRVPISAELILNWSQGIYPKPNINYYVNPELEGKNSLEVFDIVVQTCKEVGLKIMLDIHSIKTDAMGHIYPVWYDEKFTPEDFYKACEWITNRYKNDDTIIAFDLKNEPHGKPWQDTTFAKWDNSTDINNWKYAAETCAKRILNINPNLLIVIEGLEAYPKDDVTWTSKSSSDYYSTWWGGNLRGVRKYPINLGKYQNKVVYSPHDYGPSVYQQPWFYPGFTKESLLQDCWRPNWAYLMEENIAPLLIGEWGGHLDGADNEKWMKYLRDYIIENHIHHTFWCFNANSGDTGGLVGYDFTTWDEKKYSFLKPALWQDSQGRFVGLDHKRPLGTNGKNINITTYYNNNEPEPVPASK			not active; also recorded: not hydrolyzed	Yes	can produce both cellobiose and glucose; also recorded: cellobiose is the predominant sugar released	about 60%	25%	active; also recorded: hydrolyzed				Yes	2200 µM	0.71 µmol/min/mg	2400 µM	0.62 µmol/min/mg	0.817 s⁻¹	up to 50%	80 °C	4.7-5.5
CBH protein: Protein encoded by the YP_001179883 gene of Caldicellulosiruptor saccharolyticus, domains GH10, CBM3, GH5 (SEQ ID NO:2) (protein, listed as Caldicellulosiruptor saccharolyticus) MKRNLFRIVSRVVLIAFIASISLVGAMSYFPVETQAAPDWSIPSLCESYKDDFMIGVAIPARCLSNDTDKRMVLKHFNSITAENEMKPESLLAGQTSTGLSYRFSTADAFVDFASTNKIGIRGHTLVWHNQTPDWFFKDSNGQRLSKDALLARLKQYIYDVVGRYKGKVYAWDVVNEAIDENQPDSYRRSTWYEICGPEYIEKAFIWAHEADPNAKLFYNDYNTEISKKRDFIYNMVKNLKSKGIPIHGIGMQCHINVNWPSVSEIENSIKLFSSIPGIEIHITELDMSLYNYGSSENYSTPPQDLLQKQSQKYKEIFTMLKKYKNVVKSVTFWGLKDDYSWLRSFYGKNDWPLLFFEDYSAKPAYWAVLEASGVTTSSPTPTPTPTVTVTPTPTPTPTPTVTATPTPTPTPVSTPATGGQIKVLYANKETNSTTNTIRPWLKVVNSGSSSIDLSRVTIRYWYTVDGERAQSAVSDWAQIGASNVTFKFVKLSSSVSGADYYLEIGFKSGAGQLQPGKDTGEIQIRFNKSDWSNYNQGNDWSWLQSMTSYGENEKVTAYIDGVLVWGQEPSGATPAPTMTVAPTATPTPTLSPTVTPTPAPTQTAIPTPTLTPNPTPTSSIPDDTNDDWLYVSGNKIVDKDGRPVWLTGINWFGYNTGTNVFDGVWSCNLKDTLAEIANRGFNLLRVPISAELILNWSQGIYPKPNINYYVNPELEGKNSLEVFDIVVQTCKEVGLKIMLDIHSIKTDAMGHIYPVWYDEKFTPEDFYKACEWITNRYKNDDTIIAFDLKNEPHGKPWQDTTFAKWDNSTDINNWKYAAETCAKRILNINFNLLIVIEGIEAYPKDDVTWTSKSSSDYYSTWWGGNLRGVRKYPINLGKYQNKVVYSPHDYGPSVYQQPWFYPGFTKESLLQDCWRPNWAYIMEENIAPLLIGEWGGHLDGADNEKWMKYLRDYIIENHIHHTFWCFNANSGDTGGLVGYDFTTWDEKKYSFLKPALWQDSQGRFVGLDHKRPLGTNGKNINITTYYNNNEPEPVPASK																		up to 50%	about 80 °C	
